This is an account of results in US6509447B1, “G protein chimeras and methods of screening compounds” (Glaxo Welcome Inc., priority 1997, dated 2003).

The assay concerns the target T1, Ste2p (Saccharomyces cerevisiae, UniProt D6VTK4).
T1 sequence (D6VTK4 1-431): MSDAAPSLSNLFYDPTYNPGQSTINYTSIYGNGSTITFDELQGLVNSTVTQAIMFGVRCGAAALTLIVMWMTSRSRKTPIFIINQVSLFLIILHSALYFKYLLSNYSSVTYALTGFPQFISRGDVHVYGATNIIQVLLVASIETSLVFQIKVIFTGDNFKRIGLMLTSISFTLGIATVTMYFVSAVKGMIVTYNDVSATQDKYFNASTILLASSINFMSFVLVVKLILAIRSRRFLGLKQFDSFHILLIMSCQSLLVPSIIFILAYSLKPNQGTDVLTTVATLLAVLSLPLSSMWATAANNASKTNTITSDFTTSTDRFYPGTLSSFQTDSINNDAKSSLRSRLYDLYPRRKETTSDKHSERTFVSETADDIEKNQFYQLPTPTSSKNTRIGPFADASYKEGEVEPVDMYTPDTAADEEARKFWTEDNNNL
Briefly: Reverse halo assay for FUS1-HIS3 expression, MMY9 cells, Ste2p. It is filed as cell-based. Details: stimulates the endogenous yeast receptor Ste2p; endogenous in cells; host or cells: Saccharomyces cerevisiae strain MMY9 (derived from W303-1A, MATa). To be noted: MMY9 cells with pRS314-GPA1, 3 nmol α-factor. The procedure:
Assay for FUS1-HIS3 Expression. Reverse halo assays were carried out by growing MMY9 cells to early stationary phase (OD600≈4) in liquid SC-glucose (2%) medium lacking tryptophan and uracil. A uniform layer of cells (5×10^7) was plated to 22.5 cm by 22.5 cm bioassay dishes (Nunc) in 100 ml SC-glucose agar (1%) equilibrated to 50° C. This medium lacked tryptophan, uracil and histidine, and was supplemented with 10 mM 3-aminotriazole, and buffered to pH 7.0 with 0.1M sodium phosphate. Antibiotic discs were placed on the solidified agar, and a volume of agonist solution (1-5 μl) was applied to each disc. Plates were incubated at 30° C. for 3 days.
The four receptors were: the melatonin ML1B receptor, the serotonin 5HT1A receptor, the somatostatin SST2 receptor and the purinergic nucleotide receptor, P2Y2. […] Activation of the pheromone response pathway was monitored with two integrated reporter genes: […] allowing a growth readout in medium lacking histidine, and FUS1-lacZ allowing a β-galactosidase readout. […] Agonist-dependent activation of FUS1-HIS3 was determined by reverse halo assay in which agonists were applied to the filter discs in the arrangement shown in panel A, in quantities as follows: 3 nmol of somatostatin-14 (S-14); 40 nmol of melatonin (Mel); 3 nmol of α-factor; 100 nmol of UTP; 40 nmol of serotonin (5-HT). […]

B1: Gpa1p: endogenous yeast Gα subunit, product of the GPA1 gene (protein, UniProt P08539 2-472, looked up)
Guanine nucleotide-binding …: GCTVSTQTIGDESDPFLQNKRANDVIEQSLQLEKQRDKNEIKLLLLGAGESGKSTVLKQLKLLHQGGFSHQERLQYAQVIWADAIQSMKILIIQARKLGIQLDCDDPINNKDLFACKRILLKAKALDYINASVAGGSDFLNDYVLKYSERYETRRRVQSTGRAKAAFDEDGNISNVKSDTDRDAETVTQNEDADRNNSSRINLQDICKDLNQEGDDQMFVRKTSREIQGQNRRNLIHEDIAKAIKQLWNNDKGIKQCFARSNEFQLEGSAAYYFDNIEKFASPNYVCTDEDILKGRIKTTGITETEFNIGSSKFKVLDAGGQRSERKKWIHCFEGITAVLFVLAMSEYDQMLFEDERVNRMHESIMLFDTLLNSKWFKDTPFILFLNKIDLFEEKVKSMPIRKYFPDYQGRVGDAEAGLKYFEKIFLSLNKTNKPIYVKRTCATDTQTMKFVLSAVTDLIIQQNLKKIGII
On to B1, for which the “agonist-dependent activation of FUS1-HIS3 (halo of cell growth)” value is on record as “increased expression of FUS1-HIS3 to enable a halo of cell growth”.
